Assay: yeast display, Sf9 membrane polyspecificity reagent, FACS + sequencing; frameworks hold sequencing errors
Procedure, shortened: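 Galactose-induced (36–48 hours) yeast carrying a synthetic nanobody display library were exposed to 10% biotinylated, detergent-solubilized Sf9 membrane reagent at 4 °C for 1 hour. FACS followed streptavidin microbead enrichment, using low and high (top ~1%) gates for expression (anti-HA) and reagent binding (streptavidin). Colony PCR, MiSeq 2 × 250 sequencing and CDR-length filtering followed. Labels for polyreactivity reflect the gate of origin.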

Row | Sequence | polyreactivity (PSR sort gate)
1 | QVQLVESGGGLVQAGGSLRLSCAASGRTFVTYAMGWYRPAPGKERELVAAITGSGGRTYYADSVKGRFTISRDNAKLTVYLQMNRLKPEDTAVYYCAKDHPSGRQYDYWGQGTQVTVSS | high polyreactivity
2 | QVQLVESGGGLVQAGGSLRLSCAASGRTFVTYAMGWYRQAPGKERELVAAISASGGSTYYADSVKGRFTISRDNAKNTVYLQMNSLKTEDTAVYYCAKTYFLATPYGYWGQGTQVTVSS | low polyreactivity
3 | QVQLVESGGGLVQAGGSLRLSCAASGRTFVVNAMGWYRQAPGKERELVAAIYADSVKGRFTISRDNAKNTVYLQMNSLKPEDTAVYYCAASGGTWVYYRPEYDYWGQGTQVTVSS | low polyreactivity
4 | QVQLVESGGGLVQAGGSLRLSCAASGRTFVVNDMGWYRQAPGNDRELVAAINYNAGSTFYADSVKGRFTISRDNAKKTVYLQMNSLKPEATAVYYCATDVYGYVEYDYWGQGTQVTVSS | low polyreactivity
5 | QVQLVESGGGLVQAGGSLRLSCAASGRTFVVYAMGWYRQAPGKERELVASISSIGDITNYADSVKGRFTISRDNAKNTVYLQMNSLKPEYTAVYYCTAPIGGSYNTRRAAEYDYWGQGTQVTVSS | low polyreactivity
6 | QVQLVESGGGLVQAGGSLRLSCAASGRTFVVYAMGWYRQAPGKERELVAVISFTGDSTFYADSVKGRFTISRDNAKNTVYLQMNSLKPEDTAVYYCAADFRRVFSKYSYYLYFDFDYWGQGSQVTVSS | low polyreactivity
7 | QVQLVESGGGLVQAGGSLRLSCAASGRTFVYNAMGWYRQAPGKERELVAAIDWSGGSTYYADSVKGRFTISRDNAKNTVYLQMNSLKPEDTAVYYCAADYYYPSQMDYWGQGTQVTVSS | low polyreactivity
8 | QVQLVESGGGLVQAGGSLRLSCAASGRTFVYNAMGWYRQAPGKERELVAAISSDGASTYYADSVKGRFTISRDNAKNTVYLQMNSLKPEDTAVYYCAADLLVSWWLDYDYWGQGTQVTVSS | low polyreactivity
9 | QVQLVESGGGLVQAGGSLRLSCAASGRTFVYNAMGWYRQAPGKERELVAAISSGGGTNYADSVKGRFTISRDNAKNTVYLQMNSLKPEDTAVYYCAAGFDGSRHPGFDSWVQGTQVTVSS | low polyreactivity
10 | QVQLVESGGGLVQAGGSLRLSCAASGRTFVYNAMGWYRQAPGKERELVAAISSSGGSTRYADSVKGRFTISRDNAMNTVYLQMNSLKPEDTAVYYCATRTKAYLYTYYYWGQGTQVTVSS | high polyreactivity
11 | QVQLVESGGGLVQAGGSLRLSCAASGRTFVYYAMGWYRQAPGKEREFVAAISRSGGRTSYADSVKGRFTISRDNAKNTVYLQMNSLKPEDTAVYYCAAEKRTQPTSREYYWGQGTQVTVSS | high polyreactivity
12 | QVQLVESGGGLVQAGGSLRLSCAASGRTFVYYAMGWYRQAPGKERELVAAISRSGSTYYADSVKGRFTISRDNAKNTVYLQMNSLKPEDTAVYYCAARSVYTGRPYYYWGQGTQVTVSS | high polyreactivity
13 | QVQLVESGGGLVQAGGSLRLSCAASGRTFVYYAMGWYRQAPGKERELVAAITFSGGSTYYADSVKGRFTISRDNAKNTVYLQMNSLKPEDTAVYYCAAQYRYSYPLGDYWGQGTQVTVSS | low polyreactivity
14 | QVQLVESGGGLVQAGGSLRLSCAASGRTFWANTMGWYRQAPGKEREFVAAISGRDVSTYYADSVKGRFTISRDNAMNTVYLQMNSLKPEDTAVYYCAAGNLYYAEYDYWGQGTQVTVSS | low polyreactivity
15 | QVQLVESGGGLVQAGGSLRLSCAASGRTFWDYAMGWYRQAPGKERELVAAITGGDSTYADSVKGRFTISRDNAKNTVYLQMNSLKPEDTAVYYCNADSTWDPYVRWALLYEYWGQGTQVTVSS | low polyreactivity
16 | QVQLVESGGGLVQAGGSLRLSCAASGRTFWFNAMGWYRQAPGKEREFVAAISWRGGSTYYADSVKGRFTISRDNAKNTVYLQMNSLKPEDTAVYYCAVDGEYYSDVYLYYRWDDYWGQGTQVTVSS | low polyreactivity
17 | QVQLVESGGGLVQAGGSLRLSCAASGRTFWFYGMGWYRQAPGKEREFVARISASGGSTYYADSVKGRYTISRDNAKNTVYLQMNSLKPEDTAVYYCARDTPWRYYYWGQGTQVTVSS | high polyreactivity
18 | QVQLVESGGGLVQAGGSLRLSCAASGRTFWGNAMGWYRQAPGKDRELVAAITSGGSTYYADSVKGRFTISRDNAKNTVYLQMNSLKPEDTAVYYCATRRIYKWYRYYYWGQGTQVTVSS | high polyreactivity
19 | QVQLVESGGGLVQAGGSLRLSCAASGRTFWGYVKGWYRQAPGKERELVAAITSSTGRTYYADSVKGRFTISRDNAKNTVYLQMNSLKPEDTAVYYCAAGYNGYGLQYYYWGQGTQVTVSS | high polyreactivity
20 | QVQLVESGGGLVQAGGSLRLSCAASGRTFWKNTMGWYSQAPGKERELVAVISSGGVSTSYADSVTGRFTISRDKATNTVYLHMNSLKPEDTAVYYCAADGYYIGPYDYWGQGTQVTVSS | low polyreactivity
21 | QVQLVESGGGLVQAGGSLRLSCAASGRTFWKYAMGWYRQAPGKERELVAAITASGARTYYADSVKGRFTISRDNAKNTVYLQMNSLKPEDTAVYYCNAGSVSDRQMDYWGQGTEVTVSS | low polyreactivity
22 | QVQLVESGGGLVQAGGSLRLSCAASGRTFWKYAMGWYRQAPGKERELVAAITSSGGSTYYADSVKGRFTISRDNAKNTVYLQMNSLKPEDTAVYYCAAPGWGLGYNYWGQGTQVTVSS | low polyreactivity
23 | QVQLVESGGGLVQAGGSLRLSCAASGRTFWKYARGWYRQAPGKERELVAAISSSGGNTYYADSVKGRFTISRDNAKNTVYLQMNSLKPEDTAVYYCAARLPRGAYYYWGQGTQVTVSS | high polyreactivity
24 | QVQLVESGGGLVQAGGSLRLSCAASGRTFWKYVMGWYRQAPGKERELVAVISRPAGSTYYADSVKGRFTISRDNAKNTVYLQMNSLKPEDTAVYYCAKRPKNKPVLGDYDHWGQGTQVTVSS | low polyreactivity
25 | QVQLVESGGGLVQAGGSLRLSCAASGRTFWLYAMGWYRQAPGKERELVARITRRDGSTNYADSVKGRFTISRDNAKNTVYLQMNSLKPEDTAVYYCAAGRFRYPPGAYDYWGQGIQVTVSS | high polyreactivity
26 | QVQLVESGGGLVQAGGSLRLSCAASGRTFWMNAMGWYRQATGKERELVATISSSSGSTTYADSVKGRFTISRDNAKNTVYLQMNSLKPEDTAVYYCNVDDPFYSGVVEFDYWGQGTQVTVSS | low polyreactivity
27 | QVQLVESGGGLVQAGGSLRLSCAASGRTFWNYAMGWYRQAPGKERELVAVIRFSDGSTYYADSVKGRFTISRDNAKNTVYLQMNSLKPEDTAVYYCADIGPRRWGSGFDYWGQGTQVTVSS | low polyreactivity
28 | QVQLVESGGGLVQAGGSLRLSCAASGRTFWRNDMGWYRQAPGKERELVARISWSGGSTYYADSVKGRFTISRDNAKNTVYLQMNSLKPEDTAVYYCAKYYPGRSAFSDGNYWGQGTQVTVSS | low polyreactivity
29 | QVQLVESGGGLVQAGGSLRLSCAASGRTFWRYAMGWYRQAPGKERELVARISSGGSTYYADSVKGRFTISRDNAKNTVYLQMNSLKPEDTAVYYCAVLSRHRRVPWYRYNYWGQGTQVTVSS | low polyreactivity
30 | QVQLVESGGGLVQAGGSLRLSCAASGRTFWTNAMGWYRQAPGKERELVAAISYRAGSTYYADSVKGRFTISRDNAKNTVYLQMNSLKPEDTAVYYCATRAVYYYAGFDYWGQGTQVTVSS | high polyreactivity

Reference: the nanobody polyreactivity screen of Harvey et al. (2022)
